Source: US20210054076A1 (Chugai, published 2021)

What was measured:
human CLDN6 [1] = molecular target: T1, human CLDN6 (human, UniProt P56747 1-220); test: cell-based or functional assay
T1 sequence: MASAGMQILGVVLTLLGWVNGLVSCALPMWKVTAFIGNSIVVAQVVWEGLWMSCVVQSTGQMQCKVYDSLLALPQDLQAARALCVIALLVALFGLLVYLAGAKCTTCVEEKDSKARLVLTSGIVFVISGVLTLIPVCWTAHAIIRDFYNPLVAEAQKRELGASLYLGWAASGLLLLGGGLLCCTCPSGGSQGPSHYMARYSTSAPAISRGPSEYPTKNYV

mouse CLDN6 = molecular target: T2, mouse CLDN6 (mouse, UniProt Q9Z262 1-219); test: FACS on Ba/F3 transfectant, antibody 20 micro g/ml, FITC anti-human IgG
T2 construct: whole, on cells; also called mCLDN6; BaF3_mCLDN6
T2 sequence (looked up): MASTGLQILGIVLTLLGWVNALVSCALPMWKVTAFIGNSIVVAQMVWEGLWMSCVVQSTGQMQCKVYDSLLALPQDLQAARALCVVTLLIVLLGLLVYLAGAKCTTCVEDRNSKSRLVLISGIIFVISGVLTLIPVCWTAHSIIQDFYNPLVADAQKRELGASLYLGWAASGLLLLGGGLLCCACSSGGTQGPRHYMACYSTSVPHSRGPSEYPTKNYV

human CLDN4 = molecular target: T3, human CLDN4 (human, UniProt O14493 1-209); test: as above
T3 construct: whole, on cells; also called hCLDN4; BaF3_hCLDN4
T3 sequence (looked up): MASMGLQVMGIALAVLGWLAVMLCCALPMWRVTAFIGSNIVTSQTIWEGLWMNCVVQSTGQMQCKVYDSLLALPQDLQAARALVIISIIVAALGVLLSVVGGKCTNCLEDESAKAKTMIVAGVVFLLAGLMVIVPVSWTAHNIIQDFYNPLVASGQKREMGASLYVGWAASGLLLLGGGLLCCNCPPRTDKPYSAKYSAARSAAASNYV

human CLDN6 [2] = molecular target: T1, human CLDN6; test: cell-based or functional assay; remark: listed apart in the source
human CLDN6 [3] = molecular target: T1, human CLDN6; test: cell-based or functional assay; remark: listed apart in the source

- EC50 (read off the curve), Jurkat/NFAT-RE luciferase reporter, target cells ABC-1 (human CLDN6 [1]): ~0.06 nM
- Geo-mean value of FACS (mouse CLDN6): 1790
- Geo-mean value of FACS (human CLDN4): 34
- EC50 (read off the curve), Jurkat/NFAT-RE luciferase reporter, target cells PA-1 (human CLDN6 [2]): ~0.04 nM
- EC50 (read off the curve), Jurkat/NFAT-RE luciferase reporter, target cells HuH-7 (human CLDN6 [3]): ~0.08 nM
B1: CH04/CD3 (bispecific antibody, human IgG1, kappa, N297A)
heavy 1: EVQLQQSGPELVKPGASMKISCKASGYSFTGYTMNWVKQSHGKNLEWIGLINPYNGGTIYNQKFKGKATLTVDKSSSTAYMELLSLTSEDSAVYYCARDYGFVLDYWGQGTTLTVSSASTKGPSVFPLAPSSKSTSGGTAALGCLVKDYFPEPVTVSWNSGALTSGVHTFPAVLQSSGLYSLSSVVTVPSSSLGTQTYICNVNHKPSNTKVDKKVEPKSCDKTHTCPPCPAPELRGGPKVFLFPPKPKDTLMISRTPEVTCVVVDVSHEDPEVKFNWYVDGVEVHNAKTKPREEQYASTYRVVSVLTVLHQDWLNGKEYKCKVSNKALPAPIEKTISKAKGQPREPQVYTLPPSREEMTKNQVSLTCLVKGFYPSDIAVEWESNGQPENNYKTTPPYLDSDGSFFLYSKLTVDKSRWQQGNVFSCSVMHEALHNHYTQESLSLSP
light 1: DIVLTQSPSIMSVSPGEKVTITCSASSSVSYMHWFQQKPGTSPKLCIYSTSNLASGVPARFSGRGSGTSYSLTISRVAAEDAATYYCQQRSNYPPWTFGGGTKLEIKRTVAAPSVFIFPPSDEQLKSGTASVVCLLNNFYPREAKVQWKVDNALQSGNSQESVTEQDSKDSTYSLSSTLTLSKADYEKHKVYACEVTHQGLSSPVTKSFNRGEC
heavy 2: QVQLVESGGGVVQPGGSLRLSCAASGFTFSNAWMHWVRQAPGKGLEWVAQIKDKSQNYATYVAESVKGRFTISRADSKNSIYLQMNSLKTEDTAVYYCRYVHYAAGYGVDIWGQGTTVTVSSASTKGPSVFPLAPSSKSTSGGTAALGCLVKDYFPEPVTVSWNSGALTSGVHTFPAVLQSSGLYSLSSVVTVPSSSLGTQTYICNVNHKPSNTKVDKKVEPKSCDKTHTCPPCPAPELRGGPKVFLFPPKPKDTLMISRTPEVTCVVVDVSHEDPEVKFNWYVDGVEVHNAKTKPREEQYASTYRVVSVLTVLHQDWLNGKEYKCKVSNKALPAPIEKTISKAKGQPREPQVYTLPPSRKEMTKNQVSLTCLVKGFYPSDIAVEWESNGQPENNYKTTPPYLDSDGSFFLYSKLTVDKSRWQQGNVFSCSVMHEALHNHYTQKSLSLSP
light 2: DIVMTQSPLSLPVTPGEPASISCRSSQPLVHSNRNTYLHWYQQKPGQAPRLLIYKVSNRFSGVPDRFSGSGSGTDFTLKISRVEAEDVGVYYCGQGTQVPYTFGQGTKLEIKRTVAAPSVFIFPPSDEQLKSGTASVVCLLNNFYPREAKVQWKVDNALQSGNSQESVTEQDSKDSTYSLSSTLTLSKADYEKHKVYACEVTHQGLSSPVTKSFNRGEC
notes: Made by Fab arm exchange of the bivalent anti-CLDN6 antibody CH04 with the bivalent anti-CD3 antibody CD3-1; human IgG1 constant region; One anti-CLDN6 arm and one anti-CD3 arm; also called CLDN6-TRAB; CLDN6-targeted T-cell redirecting bispecific antibody
